B1: Twist-related protein 1 (Homo sapiens), Q15672 (parent)
chain: MMQDVSSSPVSPADDSLSNSEEEPDRQQPPSGKRGGRKRRSSRRSAGGGAGPGGAAGGGVGGGDEPGSPAQGKRGKKSAGCGGGGGAGGGGGSSSGGGSPQSYEELQTQRVMANVRERQRTQSLNEAFAALRKIIPTLPSDKLSKIQTLKLAARYIDFLYQVLQSDELDSKMASCSYVAHERLSYAFSVWRMEGAWSMSASH

Variants of: B1
Settings: with BRD4, O60885-1

| effect of a mutation on the interaction | Variant |
| --- | --- |
| decreasing interaction strength | K73R |
| disrupting interaction strength | K73R;K76R |
| decreasing interaction strength | K76R |
